Laboratory results: IntAct's records for PubMed 29039417

B1: BBSome complex member BBS5 (Homo sapiens), Q8N3I7 (parent)
chain: MSVLDALWEDRDVRFDLSAQQMKTRPGEVLIDCLDSIEDTKGNNGDRGRLLVTNLRILWHSLALSRVNVSVGYNCILNITTRTANSKLRGQTEALYILTKCNSTRFEFIFTNLVPGSPRLFTSVMAVHRAYETSKMYRDFKLRSALIQNKQLRLLPQEHVYDKINGVWNLSSDQGNLGTFFITNVRIVWHANMNDSFNVSIPYLQIRSIKIRDSKFGLALVIESSQQSGGYVLGFKIDPVEKLQESVKEINSLHKVYSASPIFGVDYEMEEKPQPLEALTVEQIQDDVEIDSDGHTDAFVAYFADGNKQQDREPVFSEELGLAIEKLKDGFTLQGLWEVMS
partner: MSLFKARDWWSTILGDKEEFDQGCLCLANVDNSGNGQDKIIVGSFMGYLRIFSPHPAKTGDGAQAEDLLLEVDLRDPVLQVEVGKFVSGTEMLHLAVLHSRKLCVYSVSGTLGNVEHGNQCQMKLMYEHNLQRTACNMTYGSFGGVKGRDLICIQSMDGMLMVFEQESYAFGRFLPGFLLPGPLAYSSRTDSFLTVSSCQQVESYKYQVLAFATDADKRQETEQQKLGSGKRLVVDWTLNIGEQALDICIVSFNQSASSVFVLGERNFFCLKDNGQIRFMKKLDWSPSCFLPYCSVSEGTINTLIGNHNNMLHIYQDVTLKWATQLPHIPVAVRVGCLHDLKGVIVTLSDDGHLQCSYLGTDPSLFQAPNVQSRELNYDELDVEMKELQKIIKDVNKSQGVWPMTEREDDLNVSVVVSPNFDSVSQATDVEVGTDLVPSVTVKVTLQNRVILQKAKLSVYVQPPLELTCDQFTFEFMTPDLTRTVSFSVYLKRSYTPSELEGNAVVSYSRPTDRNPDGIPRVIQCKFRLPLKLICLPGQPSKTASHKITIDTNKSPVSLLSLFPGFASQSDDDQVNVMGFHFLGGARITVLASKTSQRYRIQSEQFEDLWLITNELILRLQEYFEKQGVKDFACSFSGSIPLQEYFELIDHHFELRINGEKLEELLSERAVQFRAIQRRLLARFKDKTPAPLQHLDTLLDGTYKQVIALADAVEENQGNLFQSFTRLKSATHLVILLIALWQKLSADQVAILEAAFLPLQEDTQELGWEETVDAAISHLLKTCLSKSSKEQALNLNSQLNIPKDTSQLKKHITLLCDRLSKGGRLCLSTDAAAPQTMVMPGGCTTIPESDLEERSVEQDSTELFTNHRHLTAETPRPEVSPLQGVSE

Variants of: B1
Conditions: with pthb1_human BBS9, Q3SYG4

effect of a mutation on the interaction | Variant
with no effect | V300E
with no effect | V300K
with no effect | V300A
with no effect | G294A
with no effect | G294K
with no effect | G294E
with no effect | D266E
with no effect | D266A
with no effect | D266K
with no effect | E277K
with no effect | E277A
with no effect | E282K
with no effect | E282A
with no effect | S317A
with no effect | S317E
with no effect | S317K
with no effect | G306K
with no effect | G306E
with no effect | G306A
with no effect | L320A
with no effect | L320K
with no effect | L320E
with no effect | A323K

effect of a mutation on the interaction | Variant
disrupting interaction strength | A323E
with no effect | R312K
with no effect | R312A
with no effect | R312E
with no effect | E325K
with no effect | E325A
with no effect | L327E
with no effect | L327K
with no effect | L327A
with no effect | D287A
with no effect | D287E
with no effect | D287K
with no effect | I290E
with no effect | I290K
with no effect | I290A
with no effect | V315K
with no effect | V315E
with no effect | V315A
with no effect | G321A
with no effect | G321K
with no effect | G321E
disrupting interaction strength | F303A
with no effect | F303K

effect of a mutation on the interaction | Variant
with no effect | F303E
with no effect | L276K
with no effect | L276E
with no effect | L276A
with no effect | V288A
with no effect | V288K
with no effect | V288E
with no effect | D291E
with no effect | D291A
with no effect | D291K
with no effect | P275K
with no effect | P275E
with no effect | P275A
with no effect | D293E
with no effect | D293A
with no effect | D293K
with no effect | P314E
with no effect | P314A
with no effect | P314K
with no effect | M269A
with no effect | M269K
with no effect | M269E
with no effect | T280K

effect of a mutation on the interaction | Variant
with no effect | T280E
with no effect | T280A
with no effect | F316K
with no effect | F316A
with no effect | F316E
with no effect | L322A
disrupting interaction strength | L322K
with no effect | L322E
with no effect | K272E
with no effect | K272A
with no effect | L279A
with no effect | L279K
with no effect | L279E
with no effect | F299A
with no effect | F299K
with no effect | F299E
with no effect | V281K
with no effect | V281A
with no effect | V281E
with no effect | E268K
with no effect | E268A
disrupting interaction strength | Y302K
with no effect | Y302A

effect of a mutation on the interaction | Variant
with no effect | Y302E
with no effect | D305A
with no effect | D305E
with no effect | D305K
with no effect | T332A
with no effect | T332E
with no effect | T332K
with no effect | L333A
with no effect | Y267A
with no effect | Y267E
with no effect | Y267K
with no effect | S292K
with no effect | S292E
with no effect | S292A
with no effect | A301E
with no effect | A301K
with no effect | P273K
with no effect | P273E
with no effect | P273A
with no effect | D329K
with no effect | D329E
with no effect | D329A
with no effect | A304K

effect of a mutation on the interaction | Variant
with no effect | A304E
with no effect | Q285K
disrupting interaction strength | Q285A
with no effect | Q285E
with no effect | T296K
with no effect | T296A
with no effect | T296E
with no effect | D297A
with no effect | D297E
with no effect | D297K
with no effect | Q310K
with no effect | Q310A
with no effect | Q310E
with no effect | Q283K
with no effect | Q283A
with no effect | Q283E
with no effect | H295E
with no effect | H295A
with no effect | H295K
with no effect | D286A
with no effect | D286K
with no effect | D286E
with no effect | E271A

effect of a mutation on the interaction | Variant
with no effect | E271K
with no effect | D311E
with no effect | D311K
with no effect | D311A
with no effect | N307E
with no effect | N307K
with no effect | N307A
with no effect | E318A
with no effect | E318K
with no effect | E313A
with no effect | E313K
with no effect | G330E
with no effect | G330K
with no effect | G330A
with no effect | K308A
with no effect | K308E
with no effect | K328E
with no effect | K328A
disrupting interaction strength | F331E
with no effect | F331A
with no effect | F331K
disrupting interaction strength | F331S
with no effect | Q274A

effect of a mutation on the interaction | Variant
with no effect | Q274E
with no effect | Q274K
with no effect | I284E
with no effect | I284A
with no effect | I284K
with no effect | A278K
with no effect | A278E
with no effect | A298E
with no effect | A298K
with no effect | E270A
with no effect | E270K
with no effect | K326E
with no effect | K326A
with no effect | Q309E
disrupting interaction strength | Q309K
with no effect | Q309A
with no effect | E289K
with no effect | E289A
with no effect | E319A
with no effect | E319K
with no effect | I324E
with no effect | I324A
with no effect | I324K
